assay: yeast display, Sf9 membrane polyspecificity reagent, FACS + sequencing; frameworks hold sequencing errors
How it was run: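 In a synthetic yeast display library (Saccharomyces cerevisiae BJ5465), nanobody expression was induced with galactose for 36–48 hours. FACS gates were set low and high (top ~1%) using anti-HA fluorescence for expression and streptavidin fluorescence for binding of the Sf9 membrane reagent. Each polyreactivity label is drawn from the gate of origin.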

| Sequence | polyreactivity (PSR sort gate) |
| --- | --- |
| QVQLVESGGGLVQAGGSLRLSCAASGRTFKYYAMGWYRQAPGKERELVATITYSGGSTYYADSVKGRFTISRDNAKNTVYLQMNSLKPEDTAVYYCNKVIFLSQSSYSFHYAYDYWGQGTQVTVSS | high polyreactivity |
| QVQLVESGGGLVQAGGSLRLSCAASGRTFLEKAMGWYRPAPGKEREFVAANTYSSGSTFYADSVKGRFTISRDNAKNTVYLQMNSLKPEDTAVYYCAARFWYRHARWYDYWGQGTQVTVSS | high polyreactivity |
| QVQLVESGGGLVQAGGSLRLSCAASGRTFLFNTMGWYRQAPGKERELVAAITRRGGSTYYADSVKGRFTISRDNAKNTVYLQMNSLKPEDTAVYYCNAPAYSPPGYYWGQGTQVTVSS | low polyreactivity |
| QVQLVESGGGLVQAGGSLRLSCAASGRTFLGYAMGWYRQAPGKERELVAAISGSGDRTYYADSVKGRFTISRDNAKNTVYLQMNSLKPEDTAVYYCNAVTVRYYASYYGRGMDYWGQGTQVTVSS | high polyreactivity |
| QVQLVESGGGLVQAGGSLRLSCAASGRTFLGYAMGWYRQAPGKERELVAAISSSGGRTYYADSVKGRFTISRDNAKNTVYLQMNSLKPEDTAVYYCNAPRIVLCGYEYWGQGTQVTVSS | high polyreactivity |
| QVQLVESGGGLVQAGGSLRLSCAASGRTFLIYAMGWYRQAPGKERELVAAINNGGSTYYADSVKGRFTISRDNAKNTVYLQMNSLKPEDTAVYYCAARQIRATRYYYWGQGTQVTVSS | high polyreactivity |
| QVQLVESGGGLVQAGGSLRLSCAASGRTFLKYTLGWYRQAPGKERELVAAISGSGGSTYYADSVKGRFTISRDNAKNTVYLQMNSLKPEDTAVYYCAAAIVRHYQTGYYWGQGTQVTVSS | high polyreactivity |
| QVQLVESGGGLVQAGGSLRLSCAASGRTFLLNAMGWYRQAPGKERELVAAITRSGVITYYADSVKGRFTISRDIAKNTVYFQMNSLKPEDTAVFYCAAQLRYSYLRPSYYYWGQGTQVTVSS | high polyreactivity |
| QVQLVESGGGLVQAGGSLRLSCAASGRTFLNNAMGWYRQAPGKERELVAAITKSGGSTYYADSVKGRFTISRDNAKNTVYLQMNSLKPEDTAVYYCAAARRYYTYYREDYYYWGQGTQVTVSS | high polyreactivity |
| QVQLVESGGGLVQAGGSLRLSCAASGRTFLNYAMGWYRQAPGKEREFVAAITWRVGTTYYADSVKGRFTISRDNAKNTVYLQMNSLKPEDTAVYYCAARSRTGRYDYWGQGTQVTVSS | high polyreactivity |
| QVQLVESGGGLVQAGGSLRLSCAASGRTFLPNAMGWYRQAPGKERELVAVITSGGSTNYADSVKGRFTISRDNAKNTVYLQMNSLKQEDTAVYYCAARRWSSSQGHWGKSAGYGYWGQGTQVTVSS | low polyreactivity |
| QVQLVESGGGLVQAGGSLRLSCAASGRTFLPNDMGWYRQAPGKERELVAAITDSGGDTYYADSVKGRFTISRDNAKNTVYLQMNSLKPEDTAVYYCAADYYYYGSYYPVEYWGQGTQVTVSS | high polyreactivity |
| QVQLVESGGGLVQAGGSLRLSCAASGRTFLQYAMGWYRQAPGKERELVATISFSGGSTYADSVKGRFTISRDNAKNTVYLQMNSLKPEDTAVYYCNAGIRYFVVGRSSYDYWGQGTQVTVSS | low polyreactivity |
| QVQLVESGGGLVQAGGSLRLSCAASGRTFLRYAMGWYRQAPGKEREFVAAISYSGSRTYYADSVKGRFTISRDTAKKTVYLQMNSLKPEDTAVYYCATDSDARVELAGYDYWGQGTQVTVSS | high polyreactivity |
| QVQLVESGGGLVQAGGSLRLSCAASGRTFLRYTMGWYRQAAGKERELVAVITNGGTRTYYADSVKGRFTISRDNAKNTVYLQMNSLKPEYTAVYYCAARVRYTANYDYWGQGTQVTVSS | high polyreactivity |
| QVQLVESGGGLVQAGGSLRLSCAASGRTFLRYTMGWYRQAPGKERELVASITRGGSTYYADSVKGRFTISRDNAKNTVYLQMNSLKPEDTAVYYCAAGKALLSRYDYWGQGTQVTVSS | high polyreactivity |
| QVQLVESGGGLVQAGGSLRLSCAASGRTFLSNAMGWYRQAPGKERELVAAISNGDNTYYADSVKGRFTISRDNAKNTVVLQMNSLKPEDTAVYYCAADQYWSWIYYPVVEYDYWGEGTQVTVSS | low polyreactivity |
| QVQLVESGGGLVQAGGSLRLSCAASGRTFLVNAMGWYRQAPGKEREFVAAITSRSGRTNYADSVKGRFTISRDNAKNTVYLEMNSLKPEDTAVYYCNAEGYTVKYWYSRYDYWGQGTQVTVSS | high polyreactivity |
| QVQLVESGGGLVQAGGSLRLSCAASGRTFLWNAMGWYRQAPGKERELITYYADSVKWRFTISRDNAKNTVYLQMNSLKPEDTAVYYCAAEQGSSVLYDSWGQGTQVTVSS | low polyreactivity |
| QVQLVESGGGLVQAGGSLRLSCAASGRTFLWNDMGWSRQAPGKERELVAAITGSDGTYADSVKGRFTISRDNAKNTVYLQMNSLKPEDTAVYYCAAETYWYFPWKYDYWGQGTQVTVSS | low polyreactivity |
| QVQLVESGGGLVQAGGSLRLSCAASGRTFLWYTMGWYRQAPGKERELVAAISGSGGSTYYADSVKGRFTISRDNAKNTVYLQMNSLKPEDTAVYYCNAVRGYRYDYWGQGTQVTVSS | high polyreactivity |
| QVQLVESGGGLVQAGGSLRLSCAASGRTFLYNAMGWYRQAPGKERELVAAIRRGSSTYYADSVKGRFTISRDNAMNTVYLQMNSLKPEDTAVYYCAARGRYRIGPGRYGKRYDYWGQGTQVTVSS | high polyreactivity |

| Sequence | polyreactivity (PSR sort gate) |
| --- | --- |
| QVQLVESGGGLVQAGGSLRLSCAASGRTFLYNAMGWYRQAPGKERELVASISYSGGSTYYADSVKGRFTISRDTAKYTVYLQMNSLKPEDTAGYYCAARFYASQDIRYDYWGQGTQVTVSS | high polyreactivity |
| QVQLVESGGGLVQAGGSLRLSCAASGRTFLYNARGWSRQAPGKEMELVAAITKSGGSKYYADSVKGRFTISRDNAKNTVYLQMNSLKPEDTAVYYCAAARRYYTYYREDYYYWGQGTQVTVSS | high polyreactivity |
| QVQLVESGGGLVQAGGSLRLSCAASGRTFLYYAMGWYRQAPGKERELVAGITSGGSTNYADSVKGRFTISRDNAKNTVYLQMNSLKPEDTAVYYCAVDQGYSRTADVNYDYWGQGTQVTVSS | low polyreactivity |
| QVQLVESGGGLVQAGGSLRLSCAASGRTFLYYVMGWYRQAPGKERELVAAITNRGGSTYYADSVKGRFTISRDNAKNTVYLQLNSLKPEDTAVYYCNAPYGVYWSSTYYYWGQGTQVTVSS | high polyreactivity |
| QVQLVESGGGLVQAGGSLRLSCAASGRTFMKNTMGWYIQAPGKERELVAVITRNGDSTYADSVKGRFTISRDNAKNTVYLQKNSLKPEDTAVFYCNVGSYRYRRYDYWGQGTQVTVSS | high polyreactivity |
| QVQLVESGGGLVQAGGSLRLSCAASGRTFNAYTMGSYRPAPGKERELVAAITSSGGNTYYADSVKGRFTISRDNAKNTVYLQMNSLKPEDTAVYYCNTVYLYGTHDYWGQGTQVTVSS | low polyreactivity |
| QVQLVESGGGLVQAGGSLRLSCAASGRTFNGNAMGWYRQAPGKERELVAGISTSDGSTYYADSVKGRFTISRDNAKNTVYLQMNSLKPVDTAVYDCAAYSHHQFSSSEYYYWGQGTQLTVSS | low polyreactivity |
| QVQLVESGGGLVQAGGSLRLSCAASGRTFNGYAMGWYRQAPGKERELVAAISSSGGSTYYADSVKGRFTISRDNAKNTVYLQMNSLKPEDTAVYYCAARRANGFNYWGQGTQVTVSS | high polyreactivity |
| QVQLVESGGGLVQAGGSLRLSCAASGRTFNGYAMGWYRQAPGKERELVAAITWNGGRTSYADSVKGRFTISRDNAKNTVYLQMNSLKPEDTAVYYCATAVLYPYFFSNMDYWGQGTQVTVSS | low polyreactivity |
| QVQLVESGGGLVQAGGSLRLSCAASGRTFNGYAMGWYRQAPGKERELVASISWSGGRTYYADSVKGRFTISRDNAKNTVYLQMNSLIPEDTAVYYCNAYYYRVPRPWFDYWGQGTQVTVSS | high polyreactivity |
| QVQLVESGGGLVQAGGSLRLSCAASGRTFNGYVMGWYRQAPGKEREFVAVINWSGGNTYYADSVKGRFTISRDNAKNTVNLQMNSLKPEDTAVYYCAARRVRSYAYDYWGQGTQVTVSS | high polyreactivity |
| QVQLVESGGGLVQAGGSLRLSCAASGRTFNGYVMGWYRQAPGKERELVAAITNRDGSTYYADSVKGRFTISRDNAKNTVYLQMNSLKPEDTAVYYCAAPVWLWADRYDSWGQGTQVTVSS | low polyreactivity |
| QVQLVESGGGLVQAGGSLRLSCAASGRTFNIYAMGWYRQAPGKERELVAAISKRGGTTYYADSVKGRFTISRDNAKNTVYLQMNSLKPEDTAVYYCAADRTNPYYGGMDYWGQGTQVTVSS | high polyreactivity |
| QVQLVESGGGLVQAGGSLRLSCAASGRTFNIYAMGWYRQEPGKERELVAAITNNGGRTYYADSVKGRFTISRDNAKNTVYLQMNSLKPEDTAVYYCAAVSGRSYDKYYYWGQGTQVTVSS | high polyreactivity |
| QVQLVESGGGLVQAGGSLRLSCAASGRTFNRNAMGWYRQAPGKERELVAAISRGGGGTFYADSVKGRFTISRDNAKNTVYLQMNSLKPEDTAVYYCAAVPIAADKANGYDYWGQGTQVTVSS | low polyreactivity |
| QVQLVESGGGLVQAGGSLRLSCAASGRTFNRYAMGRYRQAPGKERELVAVITSDGRRNYADSVKGRFTISRDKAKNTVYFQINSLKPEDTAVSYCNKRSALSFVYDFDYWGQGTQVTVSS | low polyreactivity |
| QVQLVESGGGLVQAGGSLRLSCAASGRTFNSYAMGWSRQAPGKDRELVAAISRTGASTYYADSVKGRFTISRDNAQNTVYLQMHSLKPEDTAVYYCAADANSGDGYYWGHGTQVTVSS | high polyreactivity |
| QVQLVESGGGLVQAGGSLRLSCAASGRTFNVYAMGWYRQAPGKERELVAVITNGGSTNYADSVKGRFTISRDNAKNTVYLQMNSLKPEDTAVYYCAASWGYGALTPDMGYWGQGTQVTVSS | low polyreactivity |
| QVQLVESGGGLVQAGGSLRLSCAASGRTFNYNAMGCYRQAPGKERELVAAITSGGRTNYADSVKGRFTISRDNAKNTVYLQMNSLKPEDTAVYYCATEYYRYRWVGAFRYPVYYWGQGTQVTVSS | low polyreactivity |
| QVQLVESGGGLVQAGGSLRLSCAASGRTFNYNAMGWYRQAPGKERELVAAISWGGGSTFYAVSEKGRFTISRDNAKNTVYLQMNTLKPEDTAVYYCAADRQYGNRGAYYYWGQGTQVTVSS | low polyreactivity |
| QVQLVESGGGLVQAGGSLRLSCAASGRTFNYSAMGWYRQAPGTERELVAAISSSGGRTYYADSVKGRFTISRDNAKITVYLQMNSLKPEDTAVYYCAADSFYYRPEYDYWGQGTQVTVSS | low polyreactivity |
